Laboratory results: the supplement of paper PMC7125110
± gives the standard error. This sample holds only a part of the variants without activity.

B1: glmS ribozyme (parent)
chain: AUAAAAGCGCCAGAACUACAGAAAUGUAGUUGACGAGGAGGAGGUUUAUCGAAUUUUCGGCGGAUGCCUCCAAA

Experiments:
Details in all cases: with glucosamine-6-phosphate
glucosamine-6-phosphate [1] = variants of: B1; test: self-cleavage kobs at 40 uM GlcN6P; higher = faster cleavage; RNA array
Outline: (§1)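 Tracking of barcoded ribozyme variants used a hybridised Cy3 probe at 37 °C, after in situ transcription by E. coli RNA polymerase on sequenced MiSeq chips. The flowed solution held 40 μM to 10 mM glucosamine-6-phosphate in HEPES/KCl/Mg(OAc)2 buffer, and imaging ran over ~14 h. kobs was taken from exponential decay fits of normalised per-tile medians, and kcat and KM from weighted Michaelis–Menten fits.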

glucosamine-6-phosphate [2] = variants of: B1; test: self-cleavage kobs at 160 uM GlcN6P; higher = faster cleavage; RNA array
Outline: as §1

glucosamine-6-phosphate [3] = variants of: B1; test: self-cleavage kobs at 2500 uM GlcN6P; higher = faster cleavage; RNA array
Outline: as §1

glucosamine-6-phosphate [4] = variants of: B1; test: self-cleavage kobs at 10000 uM GlcN6P; higher = faster cleavage; RNA array
Outline: as §1

glucosamine-6-phosphate [5] = variants of: B1; test: self-cleavage kobs at 640 uM GlcN6P; higher = faster cleavage; RNA array
Outline: as §1

Variant	self-cleavage kobs at 40 uM GlcN6P (glucosamine-6-phosphate [1])	self-cleavage kobs at 160 uM GlcN6P (glucosamine-6-phosphate [2])	self-cleavage kobs at 2500 uM GlcN6P (glucosamine-6-phosphate [3])	self-cleavage kobs at 10000 uM GlcN6P (glucosamine-6-phosphate [4])	self-cleavage kobs at 640 uM GlcN6P (glucosamine-6-phosphate [5])
G40A U55G C68G	< 1e-05 s⁻¹				
U45G U57C	< 1e-05 s⁻¹	< 1e-05 s⁻¹	3.94e-05 ± 1.4e-05 s⁻¹	7.89e-05 ± 9.7e-06 s⁻¹	
A15C G32U A42U	< 1e-05 s⁻¹			< 1e-05 s⁻¹	
U47G G51A	< 1e-05 s⁻¹				
U2G A33G	< 1e-05 s⁻¹			< 1e-05 s⁻¹	
C50U A52U	< 1e-05 s⁻¹	< 1e-05 s⁻¹	< 1e-05 s⁻¹	< 1e-05 s⁻¹	< 1e-05 s⁻¹
U31C G44A	< 1e-05 s⁻¹	< 1e-05 s⁻¹			
G7C G37U U47C G59U G66U C70U	< 1e-05 s⁻¹	< 1e-05 s⁻¹		< 1e-05 s⁻¹	
G40U U49C	< 1e-05 s⁻¹	< 1e-05 s⁻¹		< 1e-05 s⁻¹	< 1e-05 s⁻¹
A12U A52G C67U	7.05e-05 ± 1.6e-05 s⁻¹			0.00179 ± 0.00037 s⁻¹	
U30C G40C U49G G51A	< 1e-05 s⁻¹			< 1e-05 s⁻¹	
G9U A52G	< 1e-05 s⁻¹	< 1e-05 s⁻¹		< 1e-05 s⁻¹	
A48U G62U	< 1e-05 s⁻¹	< 1e-05 s⁻¹	< 1e-05 s⁻¹	< 1e-05 s⁻¹	< 1e-05 s⁻¹
C34U U55A G60U	< 1e-05 s⁻¹				< 1e-05 s⁻¹
G35A U49G C71A	< 1e-05 s⁻¹			< 1e-05 s⁻¹	
C11U C61G U69C	9.12e-05 ± 2.3e-05 s⁻¹			4.04e-05 ± 1.7e-05 s⁻¹	
G38U G60A	< 1e-05 s⁻¹				
C8G G51U A64G	< 1e-05 s⁻¹			< 1e-05 s⁻¹	
G35A U49G	< 1e-05 s⁻¹				
U45C C50U	< 1e-05 s⁻¹	< 1e-05 s⁻¹			< 1e-05 s⁻¹
C10U G32A G51C C67U C71U	< 1e-05 s⁻¹		< 1e-05 s⁻¹		
C8G U31C G35C	< 1e-05 s⁻¹			< 1e-05 s⁻¹	
G32A C61G	< 1e-05 s⁻¹				
G51C A52G	< 1e-05 s⁻¹	< 1e-05 s⁻¹	< 1e-05 s⁻¹	< 1e-05 s⁻¹	
A33U G43A	< 1e-05 s⁻¹	< 1e-05 s⁻¹	< 1e-05 s⁻¹	< 1e-05 s⁻¹	< 1e-05 s⁻¹

Variant	self-cleavage kobs at 40 uM GlcN6P (glucosamine-6-phosphate [1])	self-cleavage kobs at 160 uM GlcN6P (glucosamine-6-phosphate [2])	self-cleavage kobs at 2500 uM GlcN6P (glucosamine-6-phosphate [3])	self-cleavage kobs at 10000 uM GlcN6P (glucosamine-6-phosphate [4])	self-cleavage kobs at 640 uM GlcN6P (glucosamine-6-phosphate [5])
G43A C68U	0.00208 ± 0.00023 s⁻¹	0.00432 ± 0.00092 s⁻¹	0.00869 ± 0.0023 s⁻¹	0.041 ± 0.0092 s⁻¹	0.0114 ± 0.0021 s⁻¹
C11U G29U A39U A64U	< 1e-05 s⁻¹				
C10U A33G C70U	< 1e-05 s⁻¹			< 1e-05 s⁻¹	
C11G C58A A64G	< 1e-05 s⁻¹				
G37C G63A	< 1e-05 s⁻¹		< 1e-05 s⁻¹	< 1e-05 s⁻¹	< 1e-05 s⁻¹
C16U A39C C68A	< 1e-05 s⁻¹			< 1e-05 s⁻¹	
G40A G41C A48C C68A C70U	< 1e-05 s⁻¹			< 1e-05 s⁻¹	
A42G G63U	< 1e-05 s⁻¹	< 1e-05 s⁻¹	< 1e-05 s⁻¹		< 1e-05 s⁻¹
C10U G13U	< 1e-05 s⁻¹	< 1e-05 s⁻¹	< 1e-05 s⁻¹	< 1e-05 s⁻¹	< 1e-05 s⁻¹
G13C A39G A64U	< 1e-05 s⁻¹		< 1e-05 s⁻¹		
A15U U31C C50G	5.26e-05 ± 2.5e-05 s⁻¹				
G9U U45G A53G G62U	< 1e-05 s⁻¹			< 1e-05 s⁻¹	
C58A G63U U69C	< 1e-05 s⁻¹				
A14G A33U G43A	< 1e-05 s⁻¹			< 1e-05 s⁻¹	
A6U G32C	< 1e-05 s⁻¹	< 1e-05 s⁻¹	< 1e-05 s⁻¹		< 1e-05 s⁻¹
G37U A52U U57A	< 1e-05 s⁻¹				
U30G G32C A39G U45C A52U G63A	< 1e-05 s⁻¹		< 1e-05 s⁻¹	< 1e-05 s⁻¹	< 1e-05 s⁻¹
G62C G63A	< 1e-05 s⁻¹	< 1e-05 s⁻¹	< 1e-05 s⁻¹		< 1e-05 s⁻¹
A14G A53U U55G	0.000607 ± 0.00013 s⁻¹			0.036 ± 0.013 s⁻¹	
A14G A15U G37A	4.55e-05 ± 1.5e-05 s⁻¹			0.00249 ± 0.00037 s⁻¹	
A33C C71U	< 1e-05 s⁻¹	< 1e-05 s⁻¹		4.08e-05 ± 1e-05 s⁻¹	
G9A C34G U46C C61U G62U	< 1e-05 s⁻¹				
G41U A42U C70A	0.000142 ± 2.3e-05 s⁻¹			0.00204 ± 0.00044 s⁻¹	
A14C U55A U56G	0.002 ± 0.00048 s⁻¹		0.0295 ± 0.013 s⁻¹		0.0195 ± 0.0041 s⁻¹
C8A C10A G44U U46A C67A	< 1e-05 s⁻¹		< 1e-05 s⁻¹		

Variant	self-cleavage kobs at 40 uM GlcN6P (glucosamine-6-phosphate [1])	self-cleavage kobs at 160 uM GlcN6P (glucosamine-6-phosphate [2])	self-cleavage kobs at 2500 uM GlcN6P (glucosamine-6-phosphate [3])	self-cleavage kobs at 10000 uM GlcN6P (glucosamine-6-phosphate [4])	self-cleavage kobs at 640 uM GlcN6P (glucosamine-6-phosphate [5])
G32C A39C	< 1e-05 s⁻¹	< 1e-05 s⁻¹			
G32U U49C	< 1e-05 s⁻¹	< 1e-05 s⁻¹	< 1e-05 s⁻¹		< 1e-05 s⁻¹
U46C A48G C50A C71G	< 1e-05 s⁻¹				
G7C C10A G29U A64C	< 1e-05 s⁻¹		< 1e-05 s⁻¹	< 1e-05 s⁻¹	
G38U C70G	2.71e-05 ± 1e-05 s⁻¹	0.000289 ± 9.3e-05 s⁻¹			0.000298 ± 0.00014 s⁻¹
G43U G66C	< 1e-05 s⁻¹	< 1e-05 s⁻¹	< 1e-05 s⁻¹		
A12G C58U	< 1e-05 s⁻¹		1.67e-05 ± 7.9e-06 s⁻¹	6.35e-05 ± 8.1e-06 s⁻¹	
G38U U57G C68A U69A	6.8e-05 ± 3e-05 s⁻¹			5.25e-05 ± 2e-05 s⁻¹	
G13C G59U	< 1e-05 s⁻¹	< 1e-05 s⁻¹	< 1e-05 s⁻¹		< 1e-05 s⁻¹
A6C G29C A53U	< 1e-05 s⁻¹	< 1e-05 s⁻¹			
G41A U46G G51U	< 1e-05 s⁻¹				
C8A A15G	< 1e-05 s⁻¹	< 1e-05 s⁻¹	< 1e-05 s⁻¹	< 1e-05 s⁻¹	< 1e-05 s⁻¹
G35A G59C	< 1e-05 s⁻¹	< 1e-05 s⁻¹	< 1e-05 s⁻¹	< 1e-05 s⁻¹	< 1e-05 s⁻¹
A6C G29U G32A U57A	< 1e-05 s⁻¹			< 1e-05 s⁻¹	< 1e-05 s⁻¹
G44C U57C	< 1e-05 s⁻¹	< 1e-05 s⁻¹	< 1e-05 s⁻¹	< 1e-05 s⁻¹	< 1e-05 s⁻¹
G51C U55A	< 1e-05 s⁻¹				< 1e-05 s⁻¹
C8U A52G G63U	< 1e-05 s⁻¹			< 1e-05 s⁻¹	
G7C C16A	< 1e-05 s⁻¹	< 1e-05 s⁻¹	< 1e-05 s⁻¹	< 1e-05 s⁻¹	< 1e-05 s⁻¹
A39U G43A C67G	0.000153 ± 4.5e-05 s⁻¹	9.45e-05 ± 3.1e-05 s⁻¹	0.000131 ± 6.2e-05 s⁻¹	0.00313 ± 0.00085 s⁻¹	0.000465 ± 0.00019 s⁻¹
G38U U69G	0.000121 ± 1.9e-05 s⁻¹		7.1e-05 ± 1.6e-05 s⁻¹	4.47e-05 ± 9.9e-06 s⁻¹	9.8e-05 ± 4.7e-05 s⁻¹
A15U C16G C58U G59U	< 1e-05 s⁻¹		< 1e-05 s⁻¹		< 1e-05 s⁻¹
C10G G32U C58A C70G	5.06e-05 ± 1.8e-05 s⁻¹				
A12U A14G A52G	0.000148 ± 3e-05 s⁻¹		0.00387 ± 0.0018 s⁻¹	0.00726 ± 0.0014 s⁻¹	
A14G G32C U49A	< 1e-05 s⁻¹			< 1e-05 s⁻¹	
U49C G62C	< 1e-05 s⁻¹		< 1e-05 s⁻¹		< 1e-05 s⁻¹

Variant	self-cleavage kobs at 40 uM GlcN6P (glucosamine-6-phosphate [1])	self-cleavage kobs at 160 uM GlcN6P (glucosamine-6-phosphate [2])	self-cleavage kobs at 2500 uM GlcN6P (glucosamine-6-phosphate [3])	self-cleavage kobs at 10000 uM GlcN6P (glucosamine-6-phosphate [4])	self-cleavage kobs at 640 uM GlcN6P (glucosamine-6-phosphate [5])
G40A U47A A53U	6.84e-05 ± 2.5e-05 s⁻¹		0.000618 ± 0.00018 s⁻¹		
G7U G62U	< 1e-05 s⁻¹	< 1e-05 s⁻¹	< 1e-05 s⁻¹		< 1e-05 s⁻¹
A36U C50G U69C	0.000561 ± 0.00011 s⁻¹			0.000905 ± 0.00017 s⁻¹	
U30A A52C	< 1e-05 s⁻¹	< 1e-05 s⁻¹	< 1e-05 s⁻¹	< 1e-05 s⁻¹	< 1e-05 s⁻¹
A6G G38U U54C	< 1e-05 s⁻¹		< 1e-05 s⁻¹		< 1e-05 s⁻¹
G43U U49A G60A C68U	< 1e-05 s⁻¹			< 1e-05 s⁻¹	
U56G G62C	< 1e-05 s⁻¹	< 1e-05 s⁻¹	< 1e-05 s⁻¹		
A15U G38U U55C	< 1e-05 s⁻¹				
C11A A14U A15G G29A G44U C61A	< 1e-05 s⁻¹		< 1e-05 s⁻¹	< 1e-05 s⁻¹	< 1e-05 s⁻¹
G7C U31C	< 1e-05 s⁻¹	< 1e-05 s⁻¹			
G44A U56C G63A	< 1e-05 s⁻¹			< 1e-05 s⁻¹	
U49G U57A	< 1e-05 s⁻¹				< 1e-05 s⁻¹
G37C G43A C61A	< 1e-05 s⁻¹			< 1e-05 s⁻¹	
G40C C67A C71A	3.18e-05 ± 1.4e-05 s⁻¹			0.000726 ± 0.00011 s⁻¹	
C50A A64G C71U	< 1e-05 s⁻¹				
A52C G60A G66A	< 1e-05 s⁻¹	< 1e-05 s⁻¹			< 1e-05 s⁻¹
G60C G62C	< 1e-05 s⁻¹	< 1e-05 s⁻¹			
A12U G62U C70U	< 1e-05 s⁻¹			< 1e-05 s⁻¹	
C8A A48C G59U	< 1e-05 s⁻¹			< 1e-05 s⁻¹	
G38U U56G C61A C68G	0.000276 ± 7.7e-05 s⁻¹			6.19e-05 ± 2.1e-05 s⁻¹	
U46G G51C C67G	< 1e-05 s⁻¹				
G43A C61A	< 1e-05 s⁻¹	< 1e-05 s⁻¹			< 1e-05 s⁻¹
